The values that follow come from paper PMC5741625, “Methylation-regulated decommissioning of multimeric PP2A complexes” (Nature Communications, 2017).

The Kd is the concentration at which binding is half-saturated.

Experiment [1] addresses PP2A scaffold subunit (Homo sapiens) (UniProt P30153). To be noted: cited from earlier work.
Experiment [2] has as its target T1, GST-tagged unmethylated PP2A core enzyme (GST-Aα bound to Cα) (human, UniProt P30153 8-589; P67775 1-309).
T1 construct: PP2A scaffold subunit Aα, human, residues 8-589; The methods also speak of full-length Aα in pGEX-2T; also called GST-PP2A core enzyme; GST-PP2A-AC dimer; source: GST-Aα: E. coli BL21(DE3), purified (glutathione resin, Source 15Q); Cα: Hi-5 insect cells (baculovirus), purified (Ni-NTA, Source 15Q)
Description: BLI + pull-down; BLI: anti-GST sensors loaded with 150 nM GST-PP2A-AC dimer, TIPRL 0-30 μM, 300 s association and 300 s dissociation, 1:1 model; pull-down of titrated TIPRL by GST-tagged core enzyme on GS4B. To be noted: both partners purified.

Experiment [3] has as its target T2, PP2A catalytic subunit Cα (1-309) (human, UniProt P67775 1-309).
T2 construct: source: Hi-5 insect cells (baculovirus), purified (Ni-NTA, Source 15Q)
As to the kind of experiment: not stated; Supplementary Fig. 6; TIPRL with PP2Ac or the scaffold subunit alone. To be noted: both partners purified.

Experiment [4] has as its target T3, PP2A scaffold subunit (Aα) alone, as tested against TIPRL in Supplementary Fig. 6b (human, UniProt P30153 8-589).
T3 construct: PP2A scaffold subunit Aα, human; Aα (8-589) is named for biochemical experiments; source: E. coli BL21(DE3), purified (glutathione resin, Source 15Q)
The experiment is described as above. To be noted: both partners purified.

For experiment [5], the target named is GST-tagged methylated PP2A core enzyme (GST-Aα bound to carboxyl-methylated Cα) (human, UniProt P30153 8-589; P67775 1-309, carboxyl-methylated C-terminus (L309, the last residue of PP2Ac)). As to the kind of experiment: cell-based or functional assay.
GST-tagged methylated PP2A core enzyme (GST-Aα bound to carboxyl-methylated Cα), sequence (P30153 8-589, chain 1 of 2): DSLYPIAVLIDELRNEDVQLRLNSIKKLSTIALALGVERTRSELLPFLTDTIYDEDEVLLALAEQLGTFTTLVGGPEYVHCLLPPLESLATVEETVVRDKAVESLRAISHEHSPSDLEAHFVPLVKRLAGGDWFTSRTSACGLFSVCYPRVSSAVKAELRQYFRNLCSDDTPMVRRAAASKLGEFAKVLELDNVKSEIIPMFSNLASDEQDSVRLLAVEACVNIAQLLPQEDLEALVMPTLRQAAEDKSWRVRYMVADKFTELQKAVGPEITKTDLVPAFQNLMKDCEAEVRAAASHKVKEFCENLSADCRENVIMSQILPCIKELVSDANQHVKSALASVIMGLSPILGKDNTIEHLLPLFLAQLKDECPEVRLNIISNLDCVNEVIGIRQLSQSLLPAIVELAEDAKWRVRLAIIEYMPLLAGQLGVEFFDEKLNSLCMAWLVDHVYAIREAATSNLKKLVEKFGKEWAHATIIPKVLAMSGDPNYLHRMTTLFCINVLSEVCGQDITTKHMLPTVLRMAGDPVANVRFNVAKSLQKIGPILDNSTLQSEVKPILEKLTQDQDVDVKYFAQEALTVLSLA
GST-tagged methylated PP2A core enzyme (GST-Aα bound to carboxyl-methylated Cα), sequence (P67775 whole entry, chain 2 of 2): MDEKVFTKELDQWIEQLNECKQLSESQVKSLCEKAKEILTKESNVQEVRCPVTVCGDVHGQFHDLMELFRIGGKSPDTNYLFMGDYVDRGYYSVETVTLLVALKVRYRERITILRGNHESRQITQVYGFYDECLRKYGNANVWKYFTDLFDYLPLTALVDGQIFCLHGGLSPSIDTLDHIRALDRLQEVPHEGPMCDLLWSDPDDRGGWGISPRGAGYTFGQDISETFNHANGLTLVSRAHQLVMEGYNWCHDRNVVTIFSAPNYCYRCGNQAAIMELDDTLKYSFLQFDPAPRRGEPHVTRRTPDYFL
Experiment [6] addresses T4, PP2A scaffold subunit Aα (8-589), as in the crystal of the PP2A-TIPRL complex (human, UniProt P30153 8-589, selenomethionine-labeled).
T4 construct: PP2A scaffold subunit Aα, human, residues 8-589; also called PP2A-A; A subunit; source: E. coli BL21(DE3), purified; GST removed by thrombin
As to the kind of experiment: crystal structure; PP2A-TIPRL complex, sitting drop, 18 °C, 0.1 M citric acid pH 5.2, 9% PEG 4000, 0.2 M sodium acetate; 3.8 Å; four copies in the asymmetric unit. To be noted: both partners purified.

In experiment [7] the target is T5, PP2A core enzyme (Aα 8-589 and Cα 1-309) as crystallized with TIPRL (human, UniProt P30153 8-589; P67775 1-309, selenomethionine-labeled).
T5 construct: PP2A scaffold subunit Aα, human, residues 8-589; also called PP2A AC dimer; source: Aα: E. coli BL21(DE3); Cα: Hi-5 insect cells; assembled on glutathione resin, released by on-column thrombin cleavage, purified by ion exchange
T5 sequence (P30153 8-589, chain 1 of 2): as the sequence (P30153 8-589, chain 1 of 2) above
T5 sequence (P67775 whole entry, chain 2 of 2, the tested form may be a part): as the sequence (P67775 whole entry, chain 2 of 2) above
The description is as above. Particulars: both partners purified.

Experiment [8] concerns the target T2, PP2A catalytic subunit Cα (1-309). Described as above. Particulars: both partners purified.

T2 sequence (P67775 whole entry): as the sequence (P67775 whole entry, chain 2 of 2) above
T4 sequence (P30153 8-589, one chain of several): as the sequence (P30153 8-589, chain 1 of 2) above
T1 sequence (P30153 8-589, chain 1 of 2): as above
T1 sequence (P67775 whole entry, chain 2 of 2, the tested form may be a part): as the sequence (P67775 whole entry, chain 2 of 2) above
T3 sequence (P30153 8-589): as the sequence (P30153 8-589, chain 1 of 2) above
PP2A scaffold subunit (Homo sapiens), sequence (P30153 2-589): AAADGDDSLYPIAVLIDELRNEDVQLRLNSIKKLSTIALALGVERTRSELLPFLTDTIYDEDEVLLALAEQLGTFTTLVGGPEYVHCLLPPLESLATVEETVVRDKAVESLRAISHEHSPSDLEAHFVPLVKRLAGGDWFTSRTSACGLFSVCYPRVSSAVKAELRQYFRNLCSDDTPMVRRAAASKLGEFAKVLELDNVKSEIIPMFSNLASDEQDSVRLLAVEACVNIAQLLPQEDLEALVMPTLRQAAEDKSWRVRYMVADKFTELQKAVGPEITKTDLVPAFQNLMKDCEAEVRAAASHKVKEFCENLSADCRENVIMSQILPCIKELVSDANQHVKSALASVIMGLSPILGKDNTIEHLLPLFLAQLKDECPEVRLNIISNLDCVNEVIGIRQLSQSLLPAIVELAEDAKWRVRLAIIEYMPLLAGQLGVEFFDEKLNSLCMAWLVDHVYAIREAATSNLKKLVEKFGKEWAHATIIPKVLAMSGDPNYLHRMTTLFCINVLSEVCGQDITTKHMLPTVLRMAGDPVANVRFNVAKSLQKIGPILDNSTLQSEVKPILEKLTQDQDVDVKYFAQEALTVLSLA

As for PP2Ac (from UniProt P67775), in experiment [1], the dissociation constant Kd is 5 nM.

B1: TIPRL (TOR signaling pathway regulator), full length, wild type (natural protein, UniProt Q8BH58 1-271, looked up)
chain: MMIHGFQSSHQDFSFGPWKLTASKTHIMKSADVEKLADELHMPSLPEMMFGDNVLRIQHGSGFGIEFNATDALRCVNNYQGMLKVACAEEWQESRTEGEHSKEVIKPYDWTYTTDYKGTLLGESLKLKVVPTTDHIDTEKLKAREQIKFFEEVLLFEDELHDHGVSSLSVKIRVMPSSFFLLLRFFLRIDGVLIRMNDTRLYHEADKTYMLREYTSRESKIANLMHVPPSLFTEPNEISQYLPIKEAVCEKLVFPERIDPNPVDSQSTPSE
notes: TIPRL, full length, for biochemical experiments; Cloned into pQLinkH; His6-tag removed by TEV protease; also called WT TIPRL; source: E. coli BL21 (DE3), purified (Ni-NTA, Source 15Q, Superdex 200)
B1: the results for the Kd in experiment [2], in experiment [3] and in experiment [4] were about 310 nM, about 600 nM and about 10000 nM, respectively. In addition, the “fold increase of the IC50 of TIPRL for phosphatase activity upon carboxylmethylation of the PP2A core enzyme” value in experiment [5] was about 30 fold.

B2: mouse TIPRL (12-259) (domain or fragment, UniProt Q8BH58 12-259, looked up)
chain: DFSFGPWKLTASKTHIMKSADVEKLADELHMPSLPEMMFGDNVLRIQHGSGFGIEFNATDALRCVNNYQGMLKVACAEEWQESRTEGEHSKEVIKPYDWTYTTDYKGTLLGESLKLKVVPTTDHIDTEKLKAREQIKFFEEVLLFEDELHDHGVSSLSVKIRVMPSSFFLLLRFFLRIDGVLIRMNDTRLYHEADKTYMLREYTSRESKIANLMHVPPSLFTEPNEISQYLPIKEAVCEKLVFPERID
notes: TIPRL, mouse, residues 12-259; also called native TIPRL (12-259); source: E. coli BL21 (DE3), purified (Ni-NTA, Source 15Q, Superdex 200)
For B2, the binding result in experiment [6], in experiment [7] and in experiment [8] was “binds” in each case.
